Experimental data as given in publication PMC3189723.

Molecular target: ribosome nascent chain complex RNC_(1A9L) labeled with Cm on the nascent chain (1A9L 56 amb)
Test: FRET or BRET

Kd: 0.73 nM
Substance: BODIPY-Fl labeled Signal Recognition Particle (SRP; protein component Ffh) (from UniProt P0AGD7 1-453) (complex)
